Data from patent US20250243290A1.
Values joined by “and” are separate entries in the source; they are usually repeats but may differ in a detail not shown here. Equal entries are not always repeated.

Tests used:
Test in all cases: peptide-array ELISA [Con't]
LS2…2R = target: LS2…2R
TREQNRI2…2RL = target: TREQNRI2…2RL
S2…2TREQNRIC = target: S2…2TREQNRIC
[1] = target: LS2…2…
[2] = target: CSR2…2TRCAPLRK2…
CLSKQEG2RL2…2RLC = target: CLSKQEG2RL2…2RLC
REQNRI2…2R = target: REQNRI2…2R
SCGSR2…2 = target: SCGSR2…2
[3] = target: …2TSCAPLRK2…
…2GGSGGQA2TREQNRIC = target: …2GGSGGQA2TREQNRIC
2…2RPGW = target: 2…2RPGW
[4] = target: VPE2LSCGSR2…
[5] = target: V2…
[6] = target: CQA2TREQNRI2T2RPCAPLRK2…
[7] = target: CAPLRK2…2…
…2TREQNRIC = target: …2TREQNRIC
…2SK2SPGQH = target: …2SK2SPGQH
[8] = target: 2…
[9] = target: …2…
Chain of …2… (peptide, as listed by the source): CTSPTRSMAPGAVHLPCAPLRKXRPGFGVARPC

[10] = target: SDVV2…
CAPLRK2…2TREQNRI2T2RPC = target: CAPLRK2…2TREQNRI2T2RPC
LSCGSR2…2T = target: LSCGSR2…2T
[11] = target: TETSDVV2…
2…2R = target: 2…2R
VPE2LS2…2…2 = target: VPE2LS2…2…2
…2R = target: …2R
Chain of …2R (peptide, as listed by the source): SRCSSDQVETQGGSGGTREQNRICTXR

[12] = target: C2…2…
[13] = target: ETSDVV2…
CAPLRK2…2RLC = target: CAPLRK2…2RLC
PE2LSCGSR2…2T = target: PE2LSCGSR2…2T
2RLCAPLRK2…2APGTFSN = target: 2RLCAPLRK2…2APGTFSN
CDQVETQA2…2TSTSPTRC = target: CDQVETQA2…2TSTSPTRC
[14] = target: NWVPE2…
Chain of NWVPE2… (peptide, as listed by the source): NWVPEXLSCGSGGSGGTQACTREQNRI

CQA2TREQNRI2T2…2TSTSPTRC = target: CQA2TREQNRI2T2…2TSTSPTRC
[15] = target: CG2RL2APLRK2RPGFCQA2TREQNRI2T2RPC
[16] = target: …2AGGSGGL2…
LSCGSR2…2 = target: LSCGSR2…2
PE2LS2…2RPG = target: PE2LS2…2RPG
[17] = target: Y2…2…
…2…2RPGW = target: …2…2RPGW
CG2RL2APLRK2…2RLC = target: CG2RL2APLRK2…2RLC
…2…2R = target: …2…2R
[18] = target: LWNWVPE2…
Chain of LWNWVPE2… (peptide, as listed by the source): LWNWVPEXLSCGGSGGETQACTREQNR

E2LSCGSR2…2 = target: E2LSCGSR2…2
WNWVPE2…2T2 = target: WNWVPE2…2T2
LSCGSR2…2T2 = target: LSCGSR2…2T2
[19] = target: WY2…
Chain of WY2… (peptide, as listed by the source): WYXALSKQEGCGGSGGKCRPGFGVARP

[20] = target: E2LS2…2…
LS2…2TREQNRIC = target: LS2…2TREQNRIC
C2…22SK2SPGQHC = target: C2…22SK2SPGQHC
2LSCGSR2…2 = target: 2LSCGSR2…2
NRI2…2R = target: NRI2…2R
LSKQEG2…2APGTFSN = target: LSKQEG2…2APGTFSN
…2…2TSTSPTRC = target: …2…2TSTSPTRC

agonistic TNFR2 antibody MR2-1
Raw luminescence data (LS2…2R): 218 | Raw luminescence data (TREQNRI2…2RL): 206 | Raw luminescence data (S2…2TREQNRIC): 191 | Raw luminescence data [1]: 198 | Raw luminescence data [2]: 210 | Raw luminescence data (CLSKQEG2RL2…2RLC): 198 | Raw luminescence data (REQNRI2…2R): 210 | Raw luminescence data (SCGSR2…2): 192 | Raw luminescence data [3]: 197 | Raw luminescence data (…2GGSGGQA2TREQNRIC): 206 | Raw luminescence data (2…2RPGW): 224 | Raw luminescence data [4]: 194 | Raw luminescence data [5]: 222 and 197 | Raw luminescence data [6]: 204 | Raw luminescence data [7]: 223 | Raw luminescence data (…2TREQNRIC): 207 and 192 | Raw luminescence data (…2SK2SPGQH): 194 | Raw luminescence data [8]: 208 | Raw luminescence data [9]: 192 | Raw luminescence data [10]: 203 and 196 | Raw luminescence data (CAPLRK2…2TREQNRI2T2RPC): 220 | Raw luminescence data (LSCGSR2…2T): 194 | Raw luminescence data [11]: 208 | Raw luminescence data (2…2R): 223 | Raw luminescence data (VPE2LS2…2…2): 206 | Raw luminescence data (…2R): 200 | Raw luminescence data [12]: 194 | Raw luminescence data [13]: 197 | Raw luminescence data (CAPLRK2…2RLC): 227 | Raw luminescence data (PE2LSCGSR2…2T): 275 | Raw luminescence data (2RLCAPLRK2…2APGTFSN): 245 | Raw luminescence data (CDQVETQA2…2TSTSPTRC): 251 | Raw luminescence data [14]: 229 | Raw luminescence data (CQA2TREQNRI2T2…2TSTSPTRC): 274 | Raw luminescence data [15]: 244 | Raw luminescence data [16]: 254 | Raw luminescence data (LSCGSR2…2): 274 | Raw luminescence data (PE2LS2…2RPG): 277 | Raw luminescence data [17]: 245 | Raw luminescence data (…2…2RPGW): 270 | Raw luminescence data (CG2RL2APLRK2…2RLC): 252 | Raw luminescence data (…2…2R): 225 | Raw luminescence data [18]: 260 | Raw luminescence data (E2LSCGSR2…2): 262 | Raw luminescence data (WNWVPE2…2T2): 247 | Raw luminescence data (LSCGSR2…2T2): 226 | Raw luminescence data [19]: 254 | Raw luminescence data [20]: 233 | Raw luminescence data (LS2…2TREQNRIC): 232 | Raw luminescence data (C2…22SK2SPGQHC): 263 | Raw luminescence data (2LSCGSR2…2): 251 | Raw luminescence data (NRI2…2R): 229 | Raw luminescence data (LSKQEG2…2APGTFSN): 247 | Raw luminescence data (…2…2TSTSPTRC): 267
